In patent US20230364000A1, “COMPOSITIONS COMPRISING COMBINATIONS OF COLLAGEN OR ELASTIN POLYPEPTIDES WITH ACTIVE INGREDIENTS AND METHODS OF USING SAME” (Geltor, Inc., priority 2020, published 2023):

Assays:
[1] = system: Human full-thickness skin equivalents (MatTek Epiderm FT co-culture tissue models); assay: Type I collagen production in human full-thickness skin equivalents (pro-collagen type I C-peptide ELISA); type: cell-based; conditions: polypeptide 0.1% w/w, FIG. 18
Procedure: Human full-thickness skin equivalents (MatTek Epiderm FT co-culture tissue models) which contain keratinocytes and fibroblasts were treated with a 0.1% w/w truncated human type 21 collagen polypeptide (having an amino acid sequence of SEQ ID NO: 16) (“C21”; FIG. […] Culture medium was changed every 2 days. On day 4, supernatant was collected and analyzed by enzyme-linked immunosorbent assay (ELISA) for pro-collagen type I C-peptide, which is a readout for total secreted collagen type I protein.

[2] = Oxygen radical absorbance capacity (ORAC) assay, cell-free; type: biochemical; conditions: 0.1% solution
Procedure: The antioxidant potential of a polypeptide of SEQ ID NO: 16 was assessed using the oxygen free radical absorbance capacity (ORAC) assay. The ORAC assay is a cell-free assay that uses a fluorescent readout to measure a product's antioxidant capacity. Data is reported in Trolox (Vitamin E) equivalents.
A polypeptide of SEQ ID NO: 5 was also evaluated in the ORAC assay.
An oxygen radical absorbance capacity (ORAC) assay was performed to analyze the anti-oxidative capacity of a polypeptide according to SEQ ID NO: 52. The ORAC assay is a cell-free assay that uses a fluorescent readout to measure anti-oxidative capacity. Data is reported in Trolox (Vitamin E) equivalents (TEs).

[3] = system: human primary keratinocytes; assay: MTT viability of UVB-irradiated keratinocytes, pre- and post-irradiation treatment; type: cell-based; conditions: 0.1% for 24 hours before and 24 hours after 40 mJ/cm^2 UVB; compared with UVB-irradiated keratinocytes without treatment; FIG. 5
Procedure: To further assess the effects of treatment with a polypeptide of SEQ ID NO: 16 on UVB-irradiated keratinocytes, an experiment was performed with pre- and post-irradiation treatment. Human primary keratinocytes were pre-treated with 0.1% of a polypeptide of SEQ ID NO: 16 for 24 hours, irradiated with 40 mJ/cm^2 UVB light, and then treated again with 0.1% of a polypeptide of SEQ ID NO: 16 for an additional 24 hours. Cell viability was evaluated using the MTT metabolic colorimetric assay.

facial skin [4] = assay: Facial wrinkles, clinical study of Example 5; type: in vivo, human; conditions: topical facial serum 0.1%, n=15, FIG. 9
Excerpt: (§1) In a clinical study (n=15 subjects), subjects used a topical facial serum containing 0.1% of a polypeptide of SEQ ID NO: 16 for 8 weeks, after using a protein-free base facial serum for a 1-week washout period.

facial skin [5] = assay: SIAscope dermal collagen, clinical study of Example 3; type: in vivo, human; conditions: 0.1% w/w topical formulation, Week 2
Procedure: A clinical study using human subjects to determine the effects of a topical skincare product containing truncated human type 21 collagen (SEQ ID NO: 16) is performed. The research is performed according to U.S. and International standards of Good Clinical Practice (FDA and ICH guidelines) and applicable government regulations.
A base formulation (control formulation) made of water, olive oil glycereth-8 esters, glycerin, coconut alkanes, hydroxyethyl acrylate/sodium acryloyldimethyl taurate copolymer, pentylene glycol, disodium EDTA, caprylyl glycol, chlorphenesin, phenoxyethanol is prepared. A formulation containing the truncated human type 21 collagen is prepared by adding sufficient collagen to prepare a topical formulation containing 0.1% w/w collagen.
The COSMETRICS™ SIAScope (Astron Clinica, Toft, UK) is a non-invasive optical skin imaging instrument using Spectrophotometric Intracutaneous Analysis (SIA), or chromophore mapping. The technique is based on a unique combination of dermatoscopy and contact remittance spectrophotometry. The hardware consists of a hand-held imaging probe attached to a laptop computer. The unit is placed in contact with the skin surface and high-intensity LED's illuminate the skin as discreet wavelengths of 400 to 1000 nm, spanning the visible spectrum and a small range of the near infrared spectrum. A digital image is captured for each wavelength. Three parametric chromophore maps are retrieved up to 2 mm in depth and 11 mm in circumference, one for each of the following parameters: epidermal melanin, dermal hemoglobin and dermal collagen.
For the purposes of this study, dermal collagen will be measured on the left or right cheek, per a prepared randomization code, at baseline and at weeks 2, 4, and 8. Assessment location will be recorded on a face map for each subject for consistency of measurements between visits.
Improvements in skin hydration, firmness, and elasticity were statistically significant.

facial skin [6] = assay: Cutometer facial skin elasticity, clinical study of Example 5; type: in vivo, human; conditions: topical facial serum 0.1%, n=15, FIG. 6
Excerpt: as §1, with “period. Topical application of a polypeptide of SEQ ID NO: 16 was associated with increased skin elasticity, measured using a cutometer.” for “period.”

[7] = system: Human full-thickness skin equivalents (MatTek Epiderm FT co-culture tissue models); assay: Elastin production in human full-thickness skin equivalents (ELISA); type: cell-based; conditions: polypeptide 0.1% w/w, retinol (10, unit not given), ascorbic acid 2% w/w, FIG. 20
Excerpt: The combination of the truncated human type 21 collagen polypeptide with retinol increased elastin production by 45% relative to untreated control. This appeared to be a synergistic effect as treatment with truncated human type 21 collagen polypeptide alone increased elastin production by 20% and treatment with retinol alone increased elastin production by 17%. The combination of the truncated human type 21 collagen polypeptide with ascorbic acid increased elastin production by 33% relative to untreated control. This appeared to be a synergistic effect as treatment with truncated human type 21 collagen polypeptide alone increased elastin production by 20% and treatment with ascorbic acid alone increased elastin production by 5%.

B1: SEQ ID NO: 16: truncated human collagen type 21 alpha 1 without the DsbA secretion tag, recombinantly expressed in E. coli (protein)
chain: AGFPGLPGPAGEPGRHGKDGLMGSPGFKGEAGSPGAPGQDGTRGEPGIPGFPGNRGLMGQKGEIGPPGQQGKKGAPGMPGLMGSNGSPGQPGTPGSKGSKGEPGIQGMPGASGLKGEPGATGSPGEPGYMGLPGIQGKKGDKGNQGEKGIQGQKGENGRQGIPGQQGIQGHHGAKGERGEKGEPGVR
- increase of type I collagen production relative to the untreated control ([1]; day 4 supernatant, hyaluronic acid 0.1% w/w (low molecular weight, 15-40 kDa)): 64%
- production of type I collagen as compared to untreated cells ([1]; each agent alone, day 4, retinol (10, unit not given), ascorbic acid 2% w/w, hyaluronic acid 0.1% w/w): increased production
- antioxidant properties, Trolox (Vitamin E) equivalents [2]: 190 μM Trolox
- cell viability (MTT) [3]: higher cell viability
- facial wrinkles (facial skin [4]; 4 weeks vs baseline): reduction
- facial wrinkles (facial skin [4]; 8 weeks vs baseline): reduction
- SIAscope Collagen Mean Percent Improvement From BL mean (facial skin [5]): 6.72%
- SIAscope Collagen Percent of Subjects Showing Improvement From BL (facial skin [5]): 78.6%
- SIAscope Collagen Mean ± SD (facial skin [5]; n 14, baseline 238.95 ± 11.60, P-value 0.004*): 254.89 ± 19.35
- subjects showing improvement with an increase in skin elasticity (facial skin [6]; 2 weeks vs baseline): 100%
- subjects showing improvement with an increase in skin elasticity (facial skin [6]; 4 weeks vs baseline): 100%
- increase of elastin production relative to untreated control ([7]; day 2 supernatant): 20%
- production of elastin as compared to untreated cells ([7]; each agent alone, day 2, hyaluronic acid 0.1% w/w): increased production
